From paper doi:10.1101/2022.05.30.493956 (bioRxiv, 2022)
Substitutions are numbered along the chain they refer to. Names may count otherwise.

B1: Full length human lamin A W514R (natural protein, UniProt P02545 1-664, looked up)
chain: METPSQRRATRSGAQASSTPLSPTRITRLQEKEDLQELNDRLAVYIDRVRSLETENAGLRLRITESEEVVSREVSGIKAAYEAELGDARKTLDSVAKERARLQLELSKVREEFKELKARNTKKEGDLIAAQARLKDLEALLNSKEAALSTALSEKRTLEGELHDLRGQVAKLEAALGEAKKQLQDEMLRRVDAENRLQTMKEELDFQKNIYSEELRETKRRHETRLVEIDNGKQREFESRLADALQELRAQHEDQVEQYKKELEKTYSAKLDNARQSAERNSNLVGAAHEELQQSRIRIDSLSAQLSQLQKQLAAKEAKLRDLEDSLARERDTSRRLLAEKEREMAEMRARMQQQLDEYQELLDIKLALDMEIHAYRKLLEGEEERLRLSPSPTSQRSRGRASSHSSQTQGGGSVTKKRKLESTESRSSFSQHARTSGRVAVEEVDEEGKFVRLRNKSNEDQSMGNWQIKRQNGDDPLLTYRFPPKFTLKAGQVVTIWAAGAGATHSPPTDLVRKAQNTWGCGNSLRTALINSTGEEVAMRKLVRSVTVVEDDEDEDGDDLLHHHHGSHCSSSGDPAEYNLRSRTVLCGTCGQPADKASASGSGAQVGGPISSGSSASSVTVTRSYRSVGGSGGGSFGDNLVTRSYLLGNSSPRTQSPQNCSIM
B2: Full length human lamin A protein/pre-lamin A (664 amino acids), wild type (natural protein, UniProt P02545 1-664, looked up)
chain: B1 chain with R514W

Key:
[1] = target: the molecule itself; assay: far-UV circular dichroism
[2] = target: the molecule itself; assay: scanning electron microscopy of in vitro assembled purified protein

Protein | binding result [1] | binding result [2]
B1 | binds | –
B2 | – | binds
